# B1: monoclonal antibody CA45 (antibody, V domains shown)
# VH: QVQLQEWGEGLVKPSETLSLTCAVYGGSISGYYHWNWIRLPPGKGLEWIGNIDNSASTNYNPSLKTRVTISKDTSKNQISLKVRSLTAADTAVYYCARDPGFTIFGVVITSWSGLDSWGQGAVVTVSS
# VL: DIQMTQSPSSLSASVGDTVTITCRASQSISNNLAWYQQRPRRAPQLLIYAASNLASGVPSRFSGSGSGTDFTLTISSLQAEDFAAYYCQQHNTLPLTFGGGTKVEI
# Target: BDBV GP ectodomain (Bundibugyo virus)
binder,measurement,value
B1,EC50,0.65 to 1.41 nM

# — patent publication US20200040065A1 (INTEGRATED BIOTHERAPEUTICS, published 2020)
